This note sets out measurements from publication PMC3395577.

Substrate in the series: O=[N+]([O-])c1ccc(O[C@@H]2O[C@H](CO)[C@@H](O)[C@H](O)[C@H]2O)cc1
As to the kind of experiment: purified protein. The following applies: 50 mM imidazole-potassium buffer pH 6.4, 70°C, Table 2 prints 0.63.

B1: BGL (β-glucosidase, Tthe_1813) (Thermoanaerobacterium thermosaccharolyticum DSM 571) (protein)
chain: MSDFNKDFLFGVATASYQVEGAYNEDGRSMSIWDTFCRQDGKVYKGHNGDVACDHYHLYKDDVKMMKDLGIEAYRFSIAWPRIFPEKGHYNPKGIDFYKRLTDELLKNDIKPFVTIYHWDLPQWADDLGGWLNREVVDWFGEYVSKLFNELGGYIRNWITLNEPWCSSFLSYFIGEHAPGHKDLGEAVLVSHNLLLAHGKAVEIFRDINSSDSKIGITLNLNEVFPATDSPEDKAAARIADGFQNRWFLDPIFKGEYPKDMLELFGKYAKTDFITDGDLKRISQKLDFLGVNYYTRAVVKKGNDGILNAEQIDVDNEKTEMGWEVYPESLYNILMRLKNEYTFDLPLYITENGAAYKDVVSDDGHVHDEKRVEFLKKHFKQAKRFIDDGGNLRGYFVWSLMDNFEWAHGYSKRFGIVYVDYETEKRILKDSALWYKNLISTRTI
The term Km denotes the substrate concentration at which the rate is half of its maximum. Regarding B1, the Km was 0.62 mM.
